The results in this text go back to IntAct's records for PubMed 21209940.

First the molecules themselves.
B1: DNA-binding protein inhibitor ID-2 (Mus musculus), P41136 (parent)
chain: MKAFSPVRSVRKNSLSDHSLGISRSKTPVDDPMSLLYNMNDCYSKLKELVPSIPQNKKVTKMEILQHVIDYILDLQIALDSHPTIVSLHHQRPGQNQASRTPLTTLNTDISILSLQASEFPSELMSNDSKVLCG
B2: Myoblast determination protein 1 (Mus musculus), P10085 (parent)
chain: MELLSPPLRDIDLTGPDGSLCSFETADDFYDDPCFDSPDLRFFEDLDPRLVHMGALLKPEEHAHFPTAVHPGPGAREDEHVRAPSGHHQAGRCLLWACKACKRKTTNADRRKAATMRERRRLSKVNEAFETLKRCTSSNPNQRLPKVEILRNAIRYIEGLQALLRDQDAAPPGAAAFYAPGPLPPGRGSEHYSGDSDASSPRSNCSDGMMDYSGPPSGPRRQNGYDTAYYSEAARESRPGKSAAVSSLDCLSSIVERISTDSPAAPALLLADAPPESPPGPPEGASLSDTEQGTQTPSPDAAPQCPAGSNPNAIYQVL
partner: B1 chain

The variants in the first test derive from B1. To be noted: with myod1_mouse Myod1, P10085.
Turning to MKAFSPVRSVRKNSLSDHSLGISRSKTPVDDPMSLLYNMNDCYSKLKELVPSIPQNKKVTKMEILQHVIDYILDLQIALDSHPTIKSLHHQRPGQNQASRTPLTTLNTDISILSLQASEFPSELMSNDSKVLCG [V86K], the “effect of a mutation on the interaction” value was “decreasing interaction”. With MKAFSPVRSVRKNSLSDHSLGISRSKTPVDDPMSLLYNMNDCYSKLKELVPSIPQNKKVTKMEILQHVIDYILDLQIALDSHPTIVSLHHQRPGQNQASRTPLTTLNTDISILSLQASEFPSEKMSNDSKVLCG [L124K], the “effect of a mutation on the interaction” value is given as “decreasing interaction”.

In the next test the parent is B2. To be noted: with id2_mouse Id2, P41136.
As to MELLSPPLRDIDLTGPDGSLCSFETADDFYDDPCFDSPDLRFFEDLDPRLVHMGALLKPEEHAHFPTAVHPGPGAREDEHVRAPSGHHQAGRCLLWACKACKRKTTNADRRKAATMRERRRLSKVNEAFETLKRCTSSNPNQRLPKVEILRNAIRYIEGKQALLRDQDAAPPGAAAFYAPGPLPPGRGSEHYSGDSDASSPRSNCSDGMMDYSGPPSGPRRQNGYDTAYYSEAARESRPGKSAAVSSLDCLSSIVERISTDSPAAPALLLADAPPESPPGPPEGASLSDTEQGTQTPSPDAAPQCPAGSNPNAIYQVL [L160K], the “effect of a mutation on the interaction” value is recorded as “decreasing interaction”. On the same count and under the same terms, the result for MELLSPPLRDIDLTGPDGSLCSFETADDFYDDPCFDSPDLRFFEDLDPRLVHMGALLKPEEHAHFPTAVHPGPGAREDEHVRAPSGHHQAGRCLLWACKACKRKTTNADRRKAATMRERRRLSKVNEAFETLKRCTSSNPNQRLPKVEILRNAIRYKEGLQALLRDQDAAPPGAAAFYAPGPLPPGRGSEHYSGDSDASSPRSNCSDGMMDYSGPPSGPRRQNGYDTAYYSEAARESRPGKSAAVSSLDCLSSIVERISTDSPAAPALLLADAPPESPPGPPEGASLSDTEQGTQTPSPDAAPQCPAGSNPNAIYQVL [I157K] reads “disrupting interaction”. As to MELLSPPLRDIDLTGPDGSLCSFETADDFYDDPCFDSPDLRFFEDLDPRLVHMGALLKPEEHAHFPTAVHPGPGAREDEHVRAPSGHHQAGRCLLWACKACKRKTTNADRRKAATMRERRRLSKVNEAFETLKRCTSSNPNQRLPKVEKLRNAIRYIEGLQALLRDQDAAPPGAAAFYAPGPLPPGRGSEHYSGDSDASSPRSNCSDGMMDYSGPPSGPRRQNGYDTAYYSEAARESRPGKSAAVSSLDCLSSIVERISTDSPAAPALLLADAPPESPPGPPEGASLSDTEQGTQTPSPDAAPQCPAGSNPNAIYQVL [I149K], the “effect of a mutation on the interaction” value was “disrupting interaction”.

In the case of MELLSPPLRDIDLTGPDGSLCSFETADDFYDDPCFDSPDLRFFEDLDPRLVHMGALLKPEEHAHFPTAVHPGPGAREDEHVRAPSGHHQAGRCLLWACKACKRKTTNADRRKAATMRERRRLSKVNEAFETLKRCTSSNPNQRLPKVEILRNAIRYIEGLKALLRDQDAAPPGAAAFYAPGPLPPGRGSEHYSGDSDASSPRSNCSDGMMDYSGPPSGPRRQNGYDTAYYSEAARESRPGKSAAVSSLDCLSSIVERISTDSPAAPALLLADAPPESPPGPPEGASLSDTEQGTQTPSPDAAPQCPAGSNPNAIYQVL [Q161K], the “effect of a mutation on the interaction” value is “decreasing interaction”. The same measure, in the same setting: the value for MELLSPPLRDIDLTGPDGSLCSFETADDFYDDPCFDSPDLRFFEDLDPRLVHMGALLKPEEHAHFPTAVHPGPGAREDEHVRAPSGHHQAGRCLLWACKACKRKTTNADRRKAATMRERRRLSKVNEAFETLKRCTSSNPNQRLPKVEIKRNAIRYIEGLQALLRDQDAAPPGAAAFYAPGPLPPGRGSEHYSGDSDASSPRSNCSDGMMDYSGPPSGPRRQNGYDTAYYSEAARESRPGKSAAVSSLDCLSSIVERISTDSPAAPALLLADAPPESPPGPPEGASLSDTEQGTQTPSPDAAPQCPAGSNPNAIYQVL [L150K] was “decreasing interaction”.
